# PMC9267027
# Values joined by “and” are separate entries in the source; they are usually repeats but may differ in a detail not shown here. Equal entries are not always repeated.
# Target: Amy117, neopullulanase (NPase) from B. pseudofirmus 703 (B. pseudofirmus 703)
# Test: AUC; sedimentation velocity, 50 mM Na2HPO4-NaH2PO4 buffer pH 7.0, 20 °C, 38,000 rpm, absorbance at 280 nm, c(s) model in SEDFIT; oligomeric state
substance,measurement,value
"Amy117, neopullulanase (NPase) from B. pseudofirmus 703 (enzyme)",percent as a tetramer,3.3%
same,percent in the dimerized form,68.7%
same,percent in the monomeric form,24.3%
same,stoichiometry N,2 and 4
